# In patent US8993253:
# B1: papain (protein)
# chain: IPEYVDWRQKGAVTPVKNQGSCGSCWAFSAVVTIEGIIKIRTGNLNEYSEQELLDCDRRSYGCNGGYPWSALQLVAQYGIHYRNTYPYEGVQRYCRSREKGPYAAKTDGVRQVQPYNEGALLYSIANQPVSVVLEAAGKDFQLYRGGIFVGPCGNKVDHAVAAVGYGPNYILIKNSWGTGWGENGYIRIKRGTGNSYGVCGLYTSSFYPVKN
# Biological target: T1, Chromogenic polypeptide Val-Arg-[pABA]-Gly
# T1 chain: VRXG
protein,measurement,value
B1,colour change with DMAC after proteolysis (booklet assay),after ten minutes DMAC changed from yellow to red
